Data reported in patent US20220288219A1 (MYTHIC THERAPEUTICS, published 2022).

T1: CD22 Protein (His Tag), Sino Biological Cat. No. 11958-H08H (UniProt P20273 20-687)
T1 construct: soluble analyte, 50 nM in BLI; also called Sino Biological antigen
T1 sequence (looked up): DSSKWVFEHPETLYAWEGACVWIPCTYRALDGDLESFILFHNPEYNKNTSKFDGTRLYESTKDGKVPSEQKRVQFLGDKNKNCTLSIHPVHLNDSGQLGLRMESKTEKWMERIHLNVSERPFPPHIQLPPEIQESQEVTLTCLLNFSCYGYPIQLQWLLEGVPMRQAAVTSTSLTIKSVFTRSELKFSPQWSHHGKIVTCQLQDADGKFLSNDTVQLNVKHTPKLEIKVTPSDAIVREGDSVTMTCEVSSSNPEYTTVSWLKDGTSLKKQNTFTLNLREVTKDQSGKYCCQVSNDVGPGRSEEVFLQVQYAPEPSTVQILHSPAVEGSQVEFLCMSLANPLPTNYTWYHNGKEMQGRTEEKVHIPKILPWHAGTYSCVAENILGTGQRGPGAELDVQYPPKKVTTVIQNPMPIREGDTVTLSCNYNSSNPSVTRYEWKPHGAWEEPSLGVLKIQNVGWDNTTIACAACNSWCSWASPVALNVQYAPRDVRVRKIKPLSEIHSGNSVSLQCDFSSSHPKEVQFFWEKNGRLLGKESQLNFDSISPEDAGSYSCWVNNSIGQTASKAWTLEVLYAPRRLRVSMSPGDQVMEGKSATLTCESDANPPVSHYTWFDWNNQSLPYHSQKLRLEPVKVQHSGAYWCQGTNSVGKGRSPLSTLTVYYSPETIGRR


The binders below were run against T1, CD22 Protein (His Tag), Sino Biological … (assay: BLI, IgG on anti-human Fc sensor).

| Binder | binding result |
| --- | --- |
| MYT4624 (antibody, V domains shown, 12C5 VH A33H; tie by order) VH: QVQLVQSGSELKKPGASVKVSCKASGYTFTSYHMNWVRQAPGQGLEWMGWINTNTGNPTYAQGFTGRFVFSLDTSVSTAYLQISSLKAEDTAVYYCARLFYYYFGMDVWGQGTTVTVSS VL: QSALTQPASVSGSPGQSITISCTGTSSDVGSYNLVSWYQLHPGKAPKLMIYEVSKRPSGVSNRFSGSRSGNTASLTISGLQAEDEADYYCCSYANSSTLVFGGGTKLTVL | no binding (tested: 50 nM) |
| MYT4626 (antibody, V domains shown, 12C5 VH N35H; tie by order) VH: QVQLVQSGSELKKPGASVKVSCKASGYTFTSYAMHWVRQAPGQGLEWMGWINTNTGNPTYAQGFTGRFVFSLDTSVSTAYLQISSLKAEDTAVYYCARLFYYYFGMDVWGQGTTVTVSS VL: QSALTQPASVSGSPGQSITISCTGTSSDVGSYNLVSWYQLHPGKAPKLMIYEVSKRPSGVSNRFSGSRSGNTASLTISGLQAEDEADYYCCSYANSSTLVFGGGTKLTVL | no binding (tested: 50 nM) |
| MYT4651 (antibody, V domains shown, 12C5 VH M106H; tie by order) VH: QVQLVQSGSELKKPGASVKVSCKASGYTFTSYAMNWVRQAPGQGLEWMGWINTNTGNPTYAQGFTGRFVFSLDTSVSTAYLQISSLKAEDTAVYYCARLFYYYFGHDVWGQGTTVTVSS VL: QSALTQPASVSGSPGQSITISCTGTSSDVGSYNLVSWYQLHPGKAPKLMIYEVSKRPSGVSNRFSGSRSGNTASLTISGLQAEDEADYYCCSYANSSTLVFGGGTKLTVL | no binding (tested: 50 nM) |
| MYT4650 (antibody, V domains shown, 12C5 VH G105H; tie by order) VH: QVQLVQSGSELKKPGASVKVSCKASGYTFTSYAMNWVRQAPGQGLEWMGWINTNTGNPTYAQGFTGRFVFSLDTSVSTAYLQISSLKAEDTAVYYCARLFYYYFHMDVWGQGTTVTVSS VL: QSALTQPASVSGSPGQSITISCTGTSSDVGSYNLVSWYQLHPGKAPKLMIYEVSKRPSGVSNRFSGSRSGNTASLTISGLQAEDEADYYCCSYANSSTLVFGGGTKLTVL | no binding (tested: 50 nM) |
| MYT4649 (antibody, V domains shown, 12C5 VH F104H; tie by order) VH: QVQLVQSGSELKKPGASVKVSCKASGYTFTSYAMNWVRQAPGQGLEWMGWINTNTGNPTYAQGFTGRFVFSLDTSVSTAYLQISSLKAEDTAVYYCARLFYYYHGMDVWGQGTTVTVSS VL: QSALTQPASVSGSPGQSITISCTGTSSDVGSYNLVSWYQLHPGKAPKLMIYEVSKRPSGVSNRFSGSRSGNTASLTISGLQAEDEADYYCCSYANSSTLVFGGGTKLTVL | no binding (tested: 50 nM) |
| MYT4715 (antibody, V domains shown, 19A3 VH A96H; tie by order) VH: QVQLQQWGAGLLKPSETLSLTCAVYGRSFSSYYWSWIRQPPGKGLEWIGDIQHSGSTNYNPSLKSRVTISVDTSKNQFSLKLSSVTAADTAVYYCHGTFYDILTGYYPLGYWGPGTLVTVSS VL: not shown | no binding (tested: 50 nM) |
| MYT4720 (antibody, V domains shown, 19A3 VH D101H; tie by order) VH: QVQLQQWGAGLLKPSETLSLTCAVYGRSFSSYYWSWIRQPPGKGLEWIGDIQHSGSTNYNPSLKSRVTISVDTSKNQFSLKLSSVTAADTAVYYCAGTFYHILTGYYPLGYWGPGTLVTVSS VL: not shown | no binding (tested: 50 nM) |
| MYT4718 (antibody, V domains shown, 19A3 VH F99H; tie by order) VH: QVQLQQWGAGLLKPSETLSLTCAVYGRSFSSYYWSWIRQPPGKGLEWIGDIQHSGSTNYNPSLKSRVTISVDTSKNQFSLKLSSVTAADTAVYYCAGTHYDILTGYYPLGYWGPGTLVTVSS VL: not shown | no binding (tested: 50 nM) |
| MYT4723 (antibody, V domains shown, 19A3 VH T104H; tie by order) VH: QVQLQQWGAGLLKPSETLSLTCAVYGRSFSSYYWSWIRQPPGKGLEWIGDIQHSGSTNYNPSLKSRVTISVDTSKNQFSLKLSSVTAADTAVYYCAGTFYDILHGYYPLGYWGPGTLVTVSS VL: not shown | no binding (tested: 50 nM) |
| MYT1525 (antibody, V domains shown, ADCT-602 VH R99H; tie by order) VH: QVQLVQSGAEVKKPGSSVKVSCKASGYTFTSYWLHWVRQAPGQGLEWIGYINPRNDYTEYNQNFKDKATITADESTNTAYMELSSLRSEDTAFYFCARHDITTFYWGQGTTVTVSS VL: DIQLTQSPSSLSASVGDRVTMSCKSSQSVLYSANHKNYLAWYQQKPGKAPKLLIYWASTRESGVPSRFSGSGSGTDFTFTISSLQPEDIATYYCHQYLSSWTFGGGTKVQIK | no binding (tested: 50 nM) |
| MYT1527 (antibody, V domains shown, ADCT-602 VH I101H; tie by order) VH: QVQLVQSGAEVKKPGSSVKVSCKASGYTFTSYWLHWVRQAPGQGLEWIGYINPRNDYTEYNQNFKDKATITADESTNTAYMELSSLRSEDTAFYFCARRDHTTFYWGQGTTVTVSS VL: DIQLTQSPSSLSASVGDRVTMSCKSSQSVLYSANHKNYLAWYQQKPGKAPKLLIYWASTRESGVPSRFSGSGSGTDFTFTISSLQPEDIATYYCHQYLSSWTFGGGTKVQIK | no binding (tested: 50 nM) |
| MYT1529 (antibody, V domains shown, ADCT-602 VH T103H; tie by order) VH: QVQLVQSGAEVKKPGSSVKVSCKASGYTFTSYWLHWVRQAPGQGLEWIGYINPRNDYTEYNQNFKDKATITADESTNTAYMELSSLRSEDTAFYFCARRDITHFYWGQGTTVTVSS VL: DIQLTQSPSSLSASVGDRVTMSCKSSQSVLYSANHKNYLAWYQQKPGKAPKLLIYWASTRESGVPSRFSGSGSGTDFTFTISSLQPEDIATYYCHQYLSSWTFGGGTKVQIK | no binding (tested: 50 nM) |
| MYT1526 (antibody, V domains shown, ADCT-602 VH D100H; tie by order) VH: QVQLVQSGAEVKKPGSSVKVSCKASGYTFTSYWLHWVRQAPGQGLEWIGYINPRNDYTEYNQNFKDKATITADESTNTAYMELSSLRSEDTAFYFCARRHITTFYWGQGTTVTVSS VL: DIQLTQSPSSLSASVGDRVTMSCKSSQSVLYSANHKNYLAWYQQKPGKAPKLLIYWASTRESGVPSRFSGSGSGTDFTFTISSLQPEDIATYYCHQYLSSWTFGGGTKVQIK | no binding (tested: 50 nM) |
